Data on 1 molecule can be found in publication PMC2700083, “A covalent peptide inhibitor of RGS4 identified in a focused one-bead, one compound library screen” (BMC Pharmacology, 2009).

Holding throughout (format): binding
The target of one assay is T1, RGS4 C132A (Rattus norvegicus, UniProt P49799, C132A).
T1 construct: made in house
T1 sequence (P49799 52-205 C132A limits assumed): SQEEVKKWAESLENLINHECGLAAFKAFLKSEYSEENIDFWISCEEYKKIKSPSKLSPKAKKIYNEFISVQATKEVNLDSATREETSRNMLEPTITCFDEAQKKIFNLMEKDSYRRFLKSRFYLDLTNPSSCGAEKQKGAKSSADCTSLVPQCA
As to the kind of experiment: FCPIA, RGS4 cysteine mutant C132A. The conditions noted are these: read-out: Gαo affinity. The method, then: (§1) Figure 5 Dose curves of 5nd on various RGS4 cysteine mutants. Various concentrations of 5nd were tested for disruption of the RGS4-Gαo interaction for C95A (5 nM), or […], C71A (5nM) or C148A (5nM) (B), A95C in the -7C (5nM), or A132C in the -7C (5nM) (C), A71C in the -7C (5nM), or A148C in the -7C (5nM) (D) or the mutant with no cysteines in the domain (20 nM) or the C-terminus (20 nM) (E) in the FCPIA (mean ± S.E.M., n ≥ 3).
(§2) Proteins were expressed, purified and labeled as described previously. The mutagenesis was done using the "QuickChange Multi Site-Directed Mutagenesis Kit" from Stratagene according to the manufacturer's protocol. The construct of RGS4 used in these studies is a maltose binding protein (MBP-) fusion protein of the RGS4 sequence from which the amphipathic N-terminal helix has been removed (i.e. MBP-RGS4Δ51N). For simplicity in the text, this will be referred to as RGS4. All other RGS proteins were human sequences and were used as Mpb fusions: RGS7 RGS domain (aa: 305–453), RGS8 full length, RGS16 full length, and RGS19ΔC11 (amino acids 1–209). To cleave RGS4Δ51N from the MBP-His6 construct for MS analysis, MBP-His6-RGS4Δ51N was treated with 15% MBP-His6-TEV protease S219V [11] for 22 hours at 4°C and purified over a Ni-NTA column.
(§3) FCPIA was performed as previously published.

A further assay concerns the target T2, RGS4 C95A (Rattus norvegicus, UniProt P49799, C95A).
T2 construct: made in house
T2 sequence (P49799 52-205 C95A limits assumed): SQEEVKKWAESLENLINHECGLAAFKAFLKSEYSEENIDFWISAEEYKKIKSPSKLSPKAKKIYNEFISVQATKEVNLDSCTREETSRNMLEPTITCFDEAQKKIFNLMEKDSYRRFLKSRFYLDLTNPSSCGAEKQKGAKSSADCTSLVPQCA
As to the kind of experiment: FCPIA, RGS4 cysteine mutant C95A. The note with it: read-out: Gαo affinity. How it is done:
as §1, §2, §3

A further assay deals with T3, RGS4 A71C, -7C (Rattus norvegicus, UniProt P49799, C132A/C148A/C183A/C197A/C204A/C95A).
T3 construct: made in house
As to the kind of experiment: FCPIA, RGS4 A71C in the -7C. The conditions noted are these: read-out: Gαo affinity. How it is done:
as §1
(§4) The previous experiments tested which cysteines are necessary for inhibition by 5nd. In an alternative approach, we added cysteines back to the -7C mutant to determine which might be sufficient for 5nd activity. […] Furthermore, Cys132 is involved in the actions but this is clearly not sufficient to explain them. Thus it is concluded that 5nd is at least partially non-selective in its cysteine modification.
(§5) Proteins were expressed, purified and labeled as described previously. The mutagenesis was done using the "QuickChange Multi Site-Directed Mutagenesis Kit" from Stratagene according to the manufacturer's protocol. The construct of RGS4 used in these studies is a maltose binding protein (MBP-) fusion protein of the RGS4 sequence from which the amphipathic N-terminal helix has been removed (i.e. MBP-RGS4Δ51N). For simplicity in the text, this will be referred to as RGS4. […]

For assay [1], the target named is T4, RGS4 no Cys in RGS domain (Rattus norvegicus, UniProt P49799, C132A/C148A/C71A/C95A).
T4 construct: made in house
As to the kind of experiment: FCPIA, RGS4 mutant with no Cys in RGS domain. The note with it: no Cys in RGS domain; read-out: Gαo affinity. How it is done: (§6) Since 5nd forms an irreversible, DTT-sensitive bond with RGS, it was suspected that it binds covalently to a cysteine in the protein through a disulfide bridge. Indeed, removal of all 7 cysteines (termed the -7C mutant) from RGS4 greatly diminished 5nd activity (logIC50 of -3.24 ± 0.14 for -7C vs. -4.36 ± 0.02 for wild type) (Figure 5, Table 2).
as §1, §5

In assay [2] the target is RGS4 no Cys in C-terminus. As to the kind of experiment: FCPIA, RGS4 mutant with no Cys in C-terminus. The conditions noted are these: read-out: Gαo affinity. How it is done:
as §6, §1, §5

Another assay concerns the target T5, RGS4 -7C (Rattus norvegicus, UniProt P49799, C132A/C148A/C183A/C197A/C204A/C71A/C95A).
T5 construct: made in house
As to the kind of experiment: FCPIA, RGS4 -7C mutant (all 7 cysteines removed). The conditions noted are these: read-out: Gαo affinity. The method, then: as §6, §1, §5

Another assay deals with T6, RGS4 C148A (Rattus norvegicus, UniProt P49799, C148A).
T6 construct: made in house
The assay can be described thus: FCPIA, RGS4 cysteine mutant C148A. The conditions noted are these: read-out: Gαo affinity. The method, then: as §1, §2, §3

A further assay concerns the target T7, RGS4 C71A (Rattus norvegicus, UniProt P49799, C71A).
T7 construct: made in house
T7 sequence (P49799 52-205 C71A limits assumed): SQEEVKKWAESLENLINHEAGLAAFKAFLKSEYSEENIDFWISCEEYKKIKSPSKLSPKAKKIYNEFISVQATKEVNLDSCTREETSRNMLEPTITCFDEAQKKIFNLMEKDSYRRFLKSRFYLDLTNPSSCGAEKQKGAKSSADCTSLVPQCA
The assay can be described thus: FCPIA, RGS4 cysteine mutant C71A. The conditions noted are these: read-out: Gαo affinity. How it is done: as §1, §2, §3

The target in another assay is T8, RGS4 A132C, -7C (Rattus norvegicus, UniProt P49799, C148A/C183A/C197A/C204A/C71A/C95A).
T8 construct: made in house
The assay can be described thus: FCPIA, RGS4 A132C in the -7C. The conditions noted are these: read-out: Gαo affinity. How it is done: as §1, §4, §5

In a further assay the target is T9, RGS4 A95C, -7C (Rattus norvegicus, UniProt P49799, C132A/C148A/C183A/C197A/C204A/C71A).
T9 construct: made in house
The assay can be described thus: FCPIA, RGS4 A95C in the -7C. The conditions noted are these: read-out: Gαo affinity. The method, then:
as §1, §4, §5

A further assay concerns the target T10, RGS4 (Rattus norvegicus, UniProt P49799).
T10 construct: made in house
T10 sequence (P49799 52-205 limits assumed): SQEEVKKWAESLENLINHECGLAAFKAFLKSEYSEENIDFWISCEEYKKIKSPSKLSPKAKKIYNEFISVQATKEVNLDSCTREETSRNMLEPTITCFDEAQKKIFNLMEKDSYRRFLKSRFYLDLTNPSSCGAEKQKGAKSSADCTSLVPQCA
As to the kind of experiment: FCPIA (flow cytometry protein interaction assay), RGS4-Gαo interaction, wild type RGS4 (MBP-RGS4Δ51N). The note with it: wild type RGS4Δ51N, calculated in the FCPIA; read-out: Gαo affinity.

Another assay concerns the target T11, RGS4 A148C, -7C (Rattus norvegicus, UniProt P49799, C132A/C183A/C197A/C204A/C71A/C95A).
T11 construct: made in house
T11 sequence (P49799 52-205 C71A/C95A/C132A/C183A/C197A/C204A): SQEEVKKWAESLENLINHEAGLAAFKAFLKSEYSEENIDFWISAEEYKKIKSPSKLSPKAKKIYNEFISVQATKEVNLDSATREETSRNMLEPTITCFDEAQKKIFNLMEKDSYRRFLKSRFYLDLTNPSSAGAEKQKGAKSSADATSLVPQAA
As to the kind of experiment: FCPIA, RGS4 A148C in the -7C. The note with it: read-out: Gαo affinity. The method, then:
as §1, §4, §5

T3 sequence (P49799 52-205 C95A/C132A/C148A/C183A/C197A/C204A): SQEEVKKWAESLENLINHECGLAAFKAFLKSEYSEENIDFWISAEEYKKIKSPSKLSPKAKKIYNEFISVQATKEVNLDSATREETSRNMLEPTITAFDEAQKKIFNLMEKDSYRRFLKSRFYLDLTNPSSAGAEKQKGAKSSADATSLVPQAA
T5 sequence (P49799 52-205 C71A/C95A/C132A/C148A/C183A/C197A/C204A): as the sequence (P49799 52-205 C95A/C132A/C148A/C183A/C197A/C204A) above, with C20A counted along it
T8 sequence (P49799 52-205 C71A/C95A/C148A/C183A/C197A/C204A): as the sequence (P49799 52-205 C95A/C132A/C148A/C183A/C197A/C204A) above, with C20A, A81C counted along it
T6 sequence (P49799 52-205 C148A limits assumed): as the sequence (P49799 52-205 C95A/C132A/C148A/C183A/C197A/C204A) above, with A44C, A81C, A132C, A146C, A153C counted along it
T4 sequence (P49799 52-205 C71A/C95A/C132A/C148A limits assumed): as the sequence (P49799 52-205 C95A/C132A/C148A/C183A/C197A/C204A) above, with C20A, A132C, A146C, A153C counted along it
T9 sequence (P49799 52-205 C71A/C132A/C148A/C183A/C197A/C204A): as the sequence (P49799 52-205 C95A/C132A/C148A/C183A/C197A/C204A) above, with C20A, A44C counted along it

B1: Gαo: Alexa Fluor 532-labeled Gα subunit, binding partner of RGS proteins in the FCPIA (protein)
chain: MGCTLSAEERAALERSKAIEKNLKEDGISAAKDVKLLLLGAGESGKSTIVKQMKIIHEDGFSGEDVKQYKPVVYSNTIQSLAAIVRAMDTLGVEYGDKERKADSKMVCDVVSRMEDTEPFSAELLSAMMRLWGDSGIQECFNRSREYQLNDSAKYYLDSLDRIGAADYQPTEQDILRTRVKTTGIVETHFTFKNLHFRLFDVGGQRSERKKWIHCFEDVTAIIFCVALSGYDQVLHEDETTNRMHESLMLFDSICNNKFFIDTSIILFLNKKDLFGEKIKKSPLTICFPEYPGSNTYEDAAAYIQTQFESKNRSPNKEIYCHMTCATDTNNIQVVFDAVTDIIIANNLRGCGLY
modifications: Alexa Fluor 532 label (sites not given)
As to B1, the Kd in the assay with RGS4 C132A worked out at 7.9 ± 3.1 nM; in the assay with RGS4 C95A, 8.17 ± 1.5 nM; in the assay with RGS4 A71C, -7C it was 9.2 ± 2 nM; in assay [1], 3.9 ± 0.8 nM; in assay [2], 5 ± 0.7 nM; with RGS4 -7C it was 8.3 ± 1 nM. For the same molecule, the Kd is 6.84 ± 1 nM in the assay with RGS4 C148A; 12.2 ± 1.8 nM with RGS4 C71A; 12.5 ± 1 nM in the assay with RGS4 A132C, -7C; 12 ± 2 nM with RGS4 A95C, -7C; 11.6 ± 1.4 nM with RGS4; 5.7 ± 0.2 nM with RGS4 A148C, -7C.
